US20170107258A1 (CANCER RESEARCH TECHNOLOGY, published 2017)
[ ]: non-standard residue; d: D form. βSer = β-serine (lower case s in P1); βArg = β-arginine (lower case r); βLeu = β-leucine (lower case l)

T1: purified recombinant ADAM8
T1 sequence (Q05910 whole entry, species assumed, looked up): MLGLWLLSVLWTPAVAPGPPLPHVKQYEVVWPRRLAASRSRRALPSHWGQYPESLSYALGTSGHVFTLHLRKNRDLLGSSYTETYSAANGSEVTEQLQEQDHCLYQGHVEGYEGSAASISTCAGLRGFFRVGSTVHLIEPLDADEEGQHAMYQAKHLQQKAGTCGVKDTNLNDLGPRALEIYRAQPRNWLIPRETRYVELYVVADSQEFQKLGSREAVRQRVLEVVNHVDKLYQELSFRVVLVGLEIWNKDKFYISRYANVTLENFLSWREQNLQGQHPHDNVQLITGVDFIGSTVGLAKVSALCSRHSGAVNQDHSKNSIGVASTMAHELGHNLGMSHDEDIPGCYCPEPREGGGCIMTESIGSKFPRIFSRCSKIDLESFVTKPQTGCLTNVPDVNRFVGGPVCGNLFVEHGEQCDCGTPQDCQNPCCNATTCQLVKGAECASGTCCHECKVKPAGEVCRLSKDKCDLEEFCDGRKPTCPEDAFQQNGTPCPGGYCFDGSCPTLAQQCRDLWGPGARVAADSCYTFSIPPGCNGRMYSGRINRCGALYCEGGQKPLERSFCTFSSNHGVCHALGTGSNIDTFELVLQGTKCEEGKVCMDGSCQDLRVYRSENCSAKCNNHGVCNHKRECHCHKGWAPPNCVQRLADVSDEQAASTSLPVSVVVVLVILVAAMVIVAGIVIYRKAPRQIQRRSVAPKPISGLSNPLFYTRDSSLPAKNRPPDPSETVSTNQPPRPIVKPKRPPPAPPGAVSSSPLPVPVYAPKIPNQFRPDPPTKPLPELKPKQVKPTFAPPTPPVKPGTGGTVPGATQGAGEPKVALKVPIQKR

B1: cyclic peptide P2, c(rLSKDK) (peptide)
peptide: cyclo([βArg]LSKDK)
B2: cyclic peptide P1, c(RLsKDK), cyclo(Arg-Leu-{β-Ser}-Lys-Asp-Lys) (peptide)
peptide: cyclo(RL[βSer]KDK)
B3: cyclic peptide P3, c(RlSKDK) (peptide)
peptide: cyclo(R[βLeu]SKDK)

What was measured:
Test in all cases: cell-based or functional assay
[1] = target: T1, purified recombinant ADAM8
[2] = target: T1, purified recombinant ADAM8; remark: listed apart in the source
[3] = target: T1, purified recombinant ADAM8; remark: listed apart in the source

Binder	A8 Inhibition (IC50) [1] [µM]	ADAM inhibition with P1 (IC50; CD23 fluorogenic substrate) [2] [µM]	IC50 of inhibition of ADAM8 catalytic activity [3] [µM]
B1	> 0.5		
B2	0.1	0.1	~0.05
B3	> 0.5		
